Test results reported in patent publication US20200024322A1 (Eli Lilly, published 2020).
Numbered stars: 1 amine (or outer) side, 2 acyl side, 3 side chain; on linkers, the order of the positions; unused ones are H or OH. Square brackets hold non-standard residues; d marks the D form. Side chains are listed from the residue outwards. Ends that are not written are not given here. * marks the point of attachment. C20 diacid = O=C(O)CCCCCCCCCCCCCCCCCCC(=O)*; γGlu = O=C(O)[C@H](CCC(=O)[*:2])N[*:1]; AEEA = NCCOCCOCC(=O)O; Aib = CC(C)(N)C(=O)O

T1: human GIP receptor (human, UniProt P48546 22-466)
T1 construct: whole, on cells; Used as crude membranes of stably transfected CHO cells; also called hGIPR
T1 sequence (looked up): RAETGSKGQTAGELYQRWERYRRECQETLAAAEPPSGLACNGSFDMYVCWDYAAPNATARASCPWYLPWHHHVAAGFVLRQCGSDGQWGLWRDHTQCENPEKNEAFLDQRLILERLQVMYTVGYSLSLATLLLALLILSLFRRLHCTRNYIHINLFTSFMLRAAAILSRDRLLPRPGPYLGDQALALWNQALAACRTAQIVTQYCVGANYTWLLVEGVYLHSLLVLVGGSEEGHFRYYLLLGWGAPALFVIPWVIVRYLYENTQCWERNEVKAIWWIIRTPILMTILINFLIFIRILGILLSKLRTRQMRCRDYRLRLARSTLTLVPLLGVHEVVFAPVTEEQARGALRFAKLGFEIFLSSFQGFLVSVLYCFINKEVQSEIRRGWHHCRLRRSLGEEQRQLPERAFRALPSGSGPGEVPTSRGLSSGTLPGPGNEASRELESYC

B1: Example 49 (peptide)
peptide: Y[Aib]EGTFTSDYSILLDKIAQ[Aib]AFIEYLIEGGPSSGAPPPSK([AEEA-AEEA-γGlu-C20 diacid])-NH2
modifications: N-terminus assumed
SMILES: CC[C@H](C)[C@H](NC(=O)[C@H](CCCCN)NC(=O)[C@H](CC(=O)O)NC(=O)[C@H](CC(C)C)NC(=O)[C@H](CC(C)C)NC(=O)[C@@H](NC(=O)[C@H](CO)NC(=O)[C@H](Cc1ccc(O)cc1)NC(=O)[C@H](CC(=O)O)NC(=O)[C@H](CO)NC(=O)[C@@H](NC(=O)[C@H](Cc1ccccc1)NC(=O)[C@@H](NC(=O)CNC(=O)[C@H](CCC(=O)O)NC(=O)C(C)(C)NC(=O)[C@@H](N)Cc1ccc(O)cc1)[C@@H](C)O)[C@@H](C)O)[C@@H](C)CC)C(=O)N[C@@H](C)C(=O)N[C@@H](CCC(N)=O)C(=O)NC(C)(C)C(=O)N[C@@H](C)C(=O)N[C@@H](Cc1ccccc1)C(=O)N[C@H](C(=O)N[C@@H](CCC(=O)O)C(=O)N[C@@H](Cc1ccc(O)cc1)C(=O)N[C@@H](CC(C)C)C(=O)N[C@H](C(=O)N[C@@H](CCC(=O)O)C(=O)NCC(=O)NCC(=O)N1CCC[C@H]1C(=O)N[C@@H](CO)C(=O)N[C@@H](CO)C(=O)NCC(=O)N[C@@H](C)C(=O)N1CCC[C@H]1C(=O)N1CCC[C@H]1C(=O)N1CCC[C@H]1C(=O)N[C@@H](CO)C(=O)N[C@@H](CCCCNC(=O)COCCOCCNC(=O)COCCOCCNC(=O)CC[C@H](NC(=O)CCCCCCCCCCCCCCCCCCC(=O)O)C(=O)O)C(N)=O)[C@@H](C)CC)[C@@H](C)CC
B2: Example 1 (peptide)
peptide: YXEGTXTSDYSIXLDEKAQXEFIXYLIEGGPSSGAPPPS
modifications: Aib2; αMeF(2F)6; αMeL13; K17((2-[2-(2-Amino-ethoxy)-ethoxy]-acetyl)2-(γ-Glu)-CO-(CH2)18-CO2H); Aib20; D-Glu24; C-terminal NH2
B3: Example 191 (peptide)
peptide: YXEGTXTSDVSIXLDEKAQXEFIXYLIEGGPSSGAPPPS
modifications: Aib2; αMeF(2F)6; αMeL13; K17((2-[2-(2-Amino-ethoxy)-ethoxy]-acetyl)2-(γ-Glu)-CO-(CH2)18-CO2H); Aib20; D-Glu24; C-terminal NH2
B4: Example 211 (peptide)
peptide: YXEGTXTSDYSIXLDKKAQXEFIXYLIEGGPSSGAPPPS
modifications: Aib2; αMeF(2F)6; αMeL13; K17((2-[2-(2-Amino-ethoxy)-ethoxy]-acetyl)-(γ-Glu)-(2-[2-(2-Amino-ethoxy)-ethoxy]-acetyl)-CO-(CH2)18-CO2H); Aib20; D-Glu24; C-terminal NH2
B5: Example 183 (peptide)
peptide: YXEGTXTSDLSIXLDEKAQXEFIXYLIEGGPSSGAPPPS
modifications: not printed (the compound name of this Example is missing from the table of Examples 6-287)
B6: Example 87 (peptide)
peptide: YXEGTFTSDYSILLDKKAQXAFIEYLIEGGPSSGAPPPS
modifications: αMePro2; K17((2-[2-(2-Amino-ethoxy)-ethoxy]-acetyl)2-(γ-Glu)-CO-(CH2)18-CO2H); Aib20; C-terminal NH2
B7: Example 108 (peptide)
peptide: YXEGTFTSDYSILLDKKAQXAFIEYLIEGGPSSGAPPPS
modifications: Aib2; K17((2-[2-(2-Amino-ethoxy)-ethoxy]-acetyl)-AOC-(γ-Glu)-CO-(CH2)18-CO2H); Aib20; C-terminal NH2
B8: Example 135 (peptide)
peptide: H[Aib]NGTFTSDYSILLDKK([AEEA-AEEA-γGlu-C20 diacid])AQ[Aib]AFIEYLIEGGPSSGAPPPS-NH2
modifications: N-terminus assumed
SMILES: CC[C@H](C)[C@H](NC(=O)[C@H](CC(C)C)NC(=O)[C@H](Cc1ccc(O)cc1)NC(=O)[C@H](CCC(=O)O)NC(=O)[C@@H](NC(=O)[C@H](Cc1ccccc1)NC(=O)[C@H](C)NC(=O)C(C)(C)NC(=O)[C@H](CCC(N)=O)NC(=O)[C@H](C)NC(=O)[C@H](CCCCNC(=O)COCCOCCNC(=O)COCCOCCNC(=O)CC[C@H](NC(=O)CCCCCCCCCCCCCCCCCCC(=O)O)C(=O)O)NC(=O)[C@H](CCCCN)NC(=O)[C@H](CC(=O)O)NC(=O)[C@H](CC(C)C)NC(=O)[C@H](CC(C)C)NC(=O)[C@@H](NC(=O)[C@H](CO)NC(=O)[C@H](Cc1ccc(O)cc1)NC(=O)[C@H](CC(=O)O)NC(=O)[C@H](CO)NC(=O)[C@@H](NC(=O)[C@H](Cc1ccccc1)NC(=O)[C@@H](NC(=O)CNC(=O)[C@H](CC(N)=O)NC(=O)C(C)(C)NC(=O)[C@@H](N)Cc1c[nH]cn1)[C@@H](C)O)[C@@H](C)O)[C@@H](C)CC)[C@@H](C)CC)C(=O)N[C@@H](CCC(=O)O)C(=O)NCC(=O)NCC(=O)N1CCC[C@H]1C(=O)N[C@@H](CO)C(=O)N[C@@H](CO)C(=O)NCC(=O)N[C@@H](C)C(=O)N1CCC[C@H]1C(=O)N1CCC[C@H]1C(=O)N1CCC[C@H]1C(=O)N[C@@H](CO)C(N)=O
B9: Example 90 (peptide)
peptide: Y[Aib]NGTFTSDYSILLDKK([AEEA-AEEA-γGlu-C20 diacid])AQ[Aib]AFIEYLIEGGPSSGAPPPS-NH2
modifications: N-terminus assumed
SMILES: CC[C@H](C)[C@H](NC(=O)[C@H](CC(C)C)NC(=O)[C@H](Cc1ccc(O)cc1)NC(=O)[C@H](CCC(=O)O)NC(=O)[C@@H](NC(=O)[C@H](Cc1ccccc1)NC(=O)[C@H](C)NC(=O)C(C)(C)NC(=O)[C@H](CCC(N)=O)NC(=O)[C@H](C)NC(=O)[C@H](CCCCNC(=O)COCCOCCNC(=O)COCCOCCNC(=O)CC[C@H](NC(=O)CCCCCCCCCCCCCCCCCCC(=O)O)C(=O)O)NC(=O)[C@H](CCCCN)NC(=O)[C@H](CC(=O)O)NC(=O)[C@H](CC(C)C)NC(=O)[C@H](CC(C)C)NC(=O)[C@@H](NC(=O)[C@H](CO)NC(=O)[C@H](Cc1ccc(O)cc1)NC(=O)[C@H](CC(=O)O)NC(=O)[C@H](CO)NC(=O)[C@@H](NC(=O)[C@H](Cc1ccccc1)NC(=O)[C@@H](NC(=O)CNC(=O)[C@H](CC(N)=O)NC(=O)C(C)(C)NC(=O)[C@@H](N)Cc1ccc(O)cc1)[C@@H](C)O)[C@@H](C)O)[C@@H](C)CC)[C@@H](C)CC)C(=O)N[C@@H](CCC(=O)O)C(=O)NCC(=O)NCC(=O)N1CCC[C@H]1C(=O)N[C@@H](CO)C(=O)N[C@@H](CO)C(=O)NCC(=O)N[C@@H](C)C(=O)N1CCC[C@H]1C(=O)N1CCC[C@H]1C(=O)N1CCC[C@H]1C(=O)N[C@@H](CO)C(N)=O
B10: Example 110 (peptide)
peptide: YXEGTFTSDYSILLDKKAQXAFIEYLIEGGPSSGAPPPS
modifications: Aib2; K17((2-[2-(2-Amino-ethoxy)-ethoxy]-acetyl)-(γ-Glu)-(Trx)-CO-(CH2)18-CO2H); Aib20; C-terminal NH2
B11: Example 109 (peptide)
peptide: YXEGTFTSDYSILLDKKAQXAFIEYLIEGGPSSGAPPPS
modifications: Aib2; K17(AOC-(2-[2-(2-Amino-ethoxy)-ethoxy]-acetyl)-(γ-Glu)-CO-(CH2)18-CO2H); Aib20; C-terminal NH2

Key:
[1] = molecular target: T1, human GIP receptor; assay: SPA, [125I]-GIP displacement, hGIPR membranes
[2] = molecular target: T2, human GLP-1 receptor (human, UniProt P43220 24-463); assay: SPA, [125I]-GLP-1 displacement, hGLP-1R membranes
T2 construct: whole, on cells; Used as crude membranes of stably transfected HEK293 cells; also called hGLP1R; hGLP-1R

[3] = molecular target: T3, human glucagon receptor (human, UniProt P47871 26-477); assay: SPA, [125I]-Gcg displacement, hGcgR membranes
T3 construct: whole, on cells; Used as crude membranes of stably transfected HEK293 cells; also called hGcgR; hGLcgR
T3 sequence (P47871 26-477): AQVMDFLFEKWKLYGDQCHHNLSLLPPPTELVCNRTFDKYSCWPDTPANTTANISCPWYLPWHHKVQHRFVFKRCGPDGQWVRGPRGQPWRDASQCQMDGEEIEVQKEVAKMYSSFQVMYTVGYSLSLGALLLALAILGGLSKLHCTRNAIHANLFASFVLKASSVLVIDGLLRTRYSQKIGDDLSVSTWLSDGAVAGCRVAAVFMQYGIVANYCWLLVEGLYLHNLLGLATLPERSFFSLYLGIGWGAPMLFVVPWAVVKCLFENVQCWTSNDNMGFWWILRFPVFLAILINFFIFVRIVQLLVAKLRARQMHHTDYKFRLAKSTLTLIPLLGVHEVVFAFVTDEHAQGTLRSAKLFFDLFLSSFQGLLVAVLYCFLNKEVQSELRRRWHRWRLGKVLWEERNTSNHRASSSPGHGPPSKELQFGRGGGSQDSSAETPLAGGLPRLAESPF

| Binder | Ki [1] [nM] | Ki [2] [nM] | Ki [3] [nM] |
| --- | --- | --- | --- |
| B1 | 0.087 | 12.3 | 236 |
| B2 | 0.0546 | 6.67 | 207 |
| B3 | 0.144 | 4.52 | 348 |
| B4 | 0.0243 | 2.64 | 131 |
| B5 | 0.0869 | 4.11 | 304 |
| B6 | 0.034 | 1.79 | 278 |
| B7 | 0.0732 | 3 | 171 |
| B8 | 0.161 | 3.01 | 454 |
| B9 | 0.0472 | 4.76 | 245 |
| B10 | 0.0395 | 4.38 | 73.9 |
| B11 | 0.0279 | 1.34 | 43.1 |
